Laboratory results reported in article PMC7800377.

Target: SUN domain of human SUN1 (amino acid residues 616–812), tags removed (human)
Experiment: SEC-MALS; co-expressed and co-purified samples at >1 mg/ml on Superdex 200 Increase 10/300 GL in 20 mM Tris pH 8.0, 150 mM KCl, 2 mM DTT

KASH domain of human Nesprin-1 (KASH1, amino acid residues 8769–8797), tags removed, sequence (Q8NF91 8769-8797): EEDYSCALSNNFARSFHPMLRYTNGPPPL

stoichiometry N (binder:target ratio (6:6)): 1
Substance: KASH domain of human Nesprin-1 (KASH1, amino acid residues 8769–8797), tags removed (from UniProt Q8NF91 8769-8797) (domain or fragment)
